Assay results as given in patent US20190092858A1.

Molecular target: plasma proteins (fresh human plasma)
Test: size exclusion chromatography (Sephadex G-50 spin columns) with gamma counting, after incubation in fresh human plasma at 37 C for up to 4 h

protein binding (% bound to plasma proteins): < 5%
Substance: 99mTc-HYNIC-P8RI (obtained with tricine/EDDA as coligands) (peptide)
